Assay results reported in US20140363865A1, “SUPPLEMENTATION OF FATTY ACIDS FOR IMPROVING ALCOHOL PRODUCTIVITY” (BUTAMAX ADVANCED BIOFUELS LLC, priority 2010, published 2014).

Key:
S. cerevisiae culture = conditions: cerulenin added to the culture; cited from earlier work
[1] = Lipase screening for treatment of ground whole corn kernels prior to liquefaction (Example 25); type: biochemical; conditions: 55° C., pH 5.8
Protocol: Seven reaction mixtures containing tap water (67.9 g) and ground whole corn kernels (35.1 g wet wt., ground with 1.0 mm screen using a hammer mill) at pH 5.8 were stirred at 55° C. in stoppered flasks. A 3-mL sample (t=0 h) was removed from each flask and the sample immediately frozen on dry ice, then ca. 0.5 mL of 10 mM sodium phosphate buffer (pH 7.0) containing 1 mg total soluble protein (10 ppm final concentration in reaction mixture) of one of the following lipases (Novozymes) were added to one of each flask: Lipolase® 100 L, Lipex® 100L, Lipoclean® 2000T, Lipozyme® CALB L, Novozyme® CALA L, and Palatase 20000L; no lipase was added to the seventh flask. The resulting mixtures were stirred at 55° C. in stoppered flasks, and 3-mL samples were withdrawn from each reaction mixture at 1 h, 2 h, 4 h and 6 h and immediately frozen in dry ice until analyzed for wt % lipid (derivatized as fatty acid methyl esters, FAME) and for wt % free fatty acid (FFA, derivatized as fatty acid methyl esters, FAME) according to the method described by Reference 1, and the percent free fatty acid content was calculated relative to the total combined concentrations of lipid and free fatty acid was determined for each sample.

[2] = Heat inactivation of lipase in lipase-treated liquefied corn mash mixed with oleyl alcohol (Example 22); type: biochemical
Protocol: Tap water (918.4 g) was added to a jacketed 2-L resin kettle, then 474.6 g wet weight (417.6 g dry weight) of ground whole corn kernels (1.0 mm screen on hammer mill) was added with stirring. The mixture was heated to 55° C. with stirring at 300 rpm, and the pH adjusted to 5.8 with 2 N sulfuric acid. To the mixture was added 14.0 g of an aqueous solution containing 0.672 g of Spezyme®-FRED L (Genencor®, Palo Alto, Calif.), and the temperature of the mixture increased to 85° C. with stirring at 600 rpm and pH 5.8. After 120 minutes at 85° C., the mixture was cooled to 50° C. and 45.0 mL aliquots of the resulting liquefied corn mash were transferred to 50-mL polypropylene centrifuge tubes and stored frozen at −80° C.
In a first reaction, 50 g of liquefied corn mash prepared as described above was mixed with 10 ppm Lipolase® 100 L (Novozymes) for 6 h at 55° C. and with no inactivation of lipase at 85° C. for 1 h, the mixture was cooled to 30° C. In a second reaction, 50 g of liquefied corn mash was mixed with 10 ppm Lipolase® for 6 h at 55° C., then heated to 85° C. for 1 h (lipase inactivation), then cooled to 30° C. In a third reaction, 50 g of liquefied corn mash without added lipase was mixed for 6 h at 55° C., and with no heating at 85° C. for 1 h, the mixture was cooled to 30° C., 38 g of oleyl alcohol was added, and the resulting mixture stirred for 73 h at 30° C. In a fourth reaction, 50 g of liquefied corn mash without added lipase was mixed for 6 h at 55° C., then heated to 85° C. for 1 h, then cooled to 30° C. Each of the four reaction mixtures was sampled at 6 h, then 38 g of oleyl alcohol added, and the resulting mixtures stirred at 30° C. and sampled at 25 h and 73 h. Samples (both liquefied mash and oleyl alcohol (OA)) were analyzed for wt % lipid (derivatized as fatty acid methyl esters, FAME) and for wt % free fatty acid (FFA, derivatized as fatty acid methyl esters, FAME) according to the method described by Reference 1.

[3] = Lipase treatment of ground whole corn kernels prior to liquefaction, then mixing with oleyl alcohol (Example 24); type: biochemical
Protocol: Tap water (1377.6 g) was added into each of two jacketed 2-L resin kettles, then 711.9 g wet weight (625.8 g dry weight) of ground whole corn kernels (1.0 mm screen on hammer mill) was added to each kettle with stirring. Each mixture was heated to 55° C. with stirring at 300 rpm, and the pH adjusted to 5.8 with 2 N sulfuric acid. To each mixture was added 21.0 g of an aqueous solution containing 1.008 g of Spezyme®-FRED L (Genencor®, Palo Alto, Calif.). To one mixture was then added 10.5 mL of aqueous solution of Lipolase® 100L Solution (21 mg total soluble protein, 10 ppm lipase final concentration) and to the second mixture was added 1.05 mL of aqueous solution of Lipolase® 100L Solution (2.1 mg total soluble protein, 1.0 ppm lipase final concentration). Samples were withdrawn from each reaction mixture at 1 h, 2 h, 4 h and 6 h at 55° C., then the temperature of the mixture was increased to 85° C. with stirring at 600 rpm and pH 5.8, and a sample was taken when the mixture first reached 85° C. After 120 minutes at 85° C., a sample was taken and the mixtures were cooled to 50° C. and final samples of the resulting liquefied corn mash were transferred to 50-mL polypropylene centrifuge tubes; all samples were stored frozen at −80° C.
In two separate reactions, a 50 g sample of the 10 ppm lipase-treated liquefied corn mash or a 55 g sample of the 1.0 ppm lipase-treated liquefied corn mash prepared as described above was mixed with oleyl alcohol (OA) (38 g) at 30° C. for 20 h, then the liquefied mash and OA in each reaction mixture were separated by centrifugation and each phase analyzed for wt % lipid (derivatized as fatty acid methyl esters, FAME) and for wt % free fatty acid (FFA, derivatized as fatty acid methyl esters, FAME) according to the method described by Reference 1. The % FFA in the OA phase of the liquefied mash/OA mixture prepared using heat inactivation of 10 ppm lipase during liquefaction was 98% at 20 h, compared to only 62% FFA in the OA phase of the liquefied mash/OA mixture prepared using heat inactivation of 1.0 ppm lipase during liquefaction.

[4] = 0 h (sample before lipase addition)

## C/C=C/C/C=C/CCC(=O)[C@H]1O[C@H]1C(N)=O [Cerulenin, cerulenin]
S. cerevisiae culture
  growth of S. cerevisiae culture: inhibition of the growth

B1: Palatase ® 20000 L: commercial lipase preparation available from Novozymes (protein, UniProt P19515 95-363, looked up)
Lipase: SIDGGIRAATSQEINELTYYTTLSANSYCRTVIPGATWDCIHCDATEDLKIIKTWSTLIYDTNAMVARGDSEKTIYIVFRGSSSIRNWIADLTFVPVSYPPVSGTKVHKGFLDSYGEVQNELVATVLDQFKQYPSYKVAVTGHSLGGATALLCALDLYQREEGLSSSNLFLYTQGQPRVGDPAFANYVVSTGIPYRRTVNERDIVPHLPPAAFGFLHAGEEYWITDNSPETVQVCTSDLETSDCSNSIVPFTSVLDHLSYFGINTGLCT
[1]; [4]
  % FFA: 37%
[1]; 1 h, 10 ppm lipase
  % FFA: 49%
[1]; 2 h, 10 ppm lipase
  % FFA: 59%
[1]; 4 h, 10 ppm lipase
  % FFA: 62%
[1]; 6 h, 10 ppm lipase
  % FFA: 66%

B2: Lipolase ® 100 L: commercial lipase preparation available from Novozymes (protein, UniProt O59952 23-291, looked up)
Lipase: EVSQDLFNQFNLFAQYSAAAYCGKNNDAPAGTNITCTGNACPEVEKADATFLYSFEDSGVGDVTGFLALDNTNKLIVLSFRGSRSIENWIGNLNFDLKEINDICSGCRGHDGFTSSWRSVADTLRQKVEDAVREHPDYRVVFTGHSLGGALATVAGADLRGNGYDIDVFSYGAPRVGNRAFAEFLTVQTGGTLYRITHTNDIVPRLPPREFGYSHSSPEYWIKSGTLVPVTRNDIVKIEGIDATGGNNQPNIPDIPAHLWYFGLIGTCL
[2]; 10 ppm active lipase, no 85° C. heat treatment, 6 h, liq. mash
  % FFA: 89%
[2]; 10 ppm active lipase, no 85° C. heat treatment, 25 h, OA
  % FFA: 40%
[2]; 10 ppm active lipase, no 85° C. heat treatment, 25 h, liq. mash
  % FFA: 20%
[2]; 10 ppm active lipase, no 85° C. heat treatment, 73 h, OA
  % FFA: 21%
[2]; 10 ppm active lipase, no 85° C. heat treatment, 73 h, liq. mash
  % FFA: 18%
[2]; 10 ppm inactive lipase, 85° C. heat treatment, 6 h, liq. mash
  % FFA: 89%
[2]; 10 ppm inactive lipase, 85° C. heat treatment, 25 h, OA
  % FFA: 99%
[2]; 10 ppm inactive lipase, 85° C. heat treatment, 25 h, liq. mash
  % FFA: 53%
[2]; 10 ppm inactive lipase, 85° C. heat treatment, 73 h, OA
  % FFA: 95%
[2]; 10 ppm inactive lipase, 85° C. heat treatment, 73 h, liq. mash
  % FFA: 62%
[1]; [4]
  % FFA: 33%
[1]; 1 h, 10 ppm lipase
  % FFA: 56%
[1]; 2 h, 10 ppm lipase
  % FFA: 74%
[1]; 4 h, 10 ppm lipase
  % FFA: 76%
[1]; 6 h, 10 ppm lipase
  % FFA: 79%
[3]; 1.0 ppm lipase at 55° C., 1 h, pre-liquefaction
  % FFA: 54%
[3]; 1.0 ppm lipase at 55° C., 2 h, pre-liquefaction
  % FFA: 51%
[3]; 1.0 ppm lipase at 55° C., 4 h, pre-liquefaction
  % FFA: 58%
[3]; 1.0 ppm lipase at 55° C., 6 h, pre-liquefaction
  % FFA: 57%
[3]; 1.0 ppm lipase, 0 h, 85° C., liq. mash
  % FFA: 49%
[3]; 1.0 ppm lipase, 2 h, 85° C., liq. mash
  % FFA: 50%
[3]; 1.0 ppm lipase, mix with OA, 20 h, 30° C., OA
  % FFA: 62%
[3]; 1.0 ppm lipase, mix with OA, 20 h, 30° C., liq. mash
  % FFA: 20%
[3]; 10 ppm lipase at 55° C., 1 h, pre-liquefaction
  % FFA: 74%
[3]; 10 ppm lipase at 55° C., 2 h, pre-liquefaction
  % FFA: 77%
[3]; 10 ppm lipase at 55° C., 4 h, pre-liquefaction
  % FFA: 82%
[3]; 10 ppm lipase at 55° C., 6 h, pre-liquefaction
  % FFA: 87%
[3]; 10 ppm lipase, 0 h, 85° C., liq. mash
  % FFA: 86%
[3]; 10 ppm lipase, 2 h, 85° C., liq. mash
  % FFA: 85%
[3]; 10 ppm lipase, mix with OA, 20 h, 30° C., OA
  % FFA: 98%
[3]; 10 ppm lipase, mix with OA, 20 h, 30° C., liq. mash
  % FFA: 48%
